According to patent US20160252495A1 (UNIVERSITY OF BRITISH COLUMBIA, published 2016):

Target: T1, hen egg white lysozyme (hen, UniProt P00698 19-147)
T1 construct: also called HEL; hen-egg lysozyme
Test: affinity measurements by microfluidic screening

T1 sequence (P00698 19-147 limits assumed): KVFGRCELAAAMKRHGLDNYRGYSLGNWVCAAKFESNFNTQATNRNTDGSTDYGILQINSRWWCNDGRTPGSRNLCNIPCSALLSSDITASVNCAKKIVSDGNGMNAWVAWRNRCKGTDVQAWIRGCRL

B1: Mm20 mouse anti-hen egg lysozyme antibody (antibody, V domains shown)
VH: QVQLQQSGPELMKPGASVKISCKATGYTFRNYWIEWIKQRPGHGLEWIGEILPESGSINYNEKFKGKATFTADTSSNTAYLQLRSLTSEDSAVYYCFYDNYVFDYWGQGTTL
VL: QIVLIQSPTIMSASPGEKVTMTCSANSSFSYMHWYQQKSGTSPKRWIYDTSKLASGVPARFSGSGSGTSYSLTISSMEAEDAATYYCQQWSRNPTFGAGTKL
B1: binds.
